Reference: the Human Domainome abundance scans (Beltran et al. 2025)
± gives the uncertainty stated by the source.

B1: F-BAR and double SH3 domains protein 1, residues 467 to 528; numbered along this chain, Q86WN1 (parent)
chain: RALPCPAHVVFRYQAGREDELTITEGEWLEVIEEGDADEWVKARNQHGEVGFVPERYLNFPD

Variants of: B1
Assay: abundance fitness (aPCA) (normalised: wild type 0, dead -1); higher = more abundant; growth selection in yeast, the domain comes from the species named
Settings: Homo sapiens

D19K and R12H are within error of each other in abundance fitness: -0.05 ± 0.063 for the first, -0.188 ± 0.12 for the second.

First: V31W
Second: R1L
The abundance fitness of the first is lower: -0.837 ± 0.11 for the first, -0.47 ± 0.1 for the second.

First: I23Y
Second: P4I
The abundance fitness of the first is lower: -0.958 ± 0.17 for the first, -0.381 ± 0.11 for the second.

Compared with E39S, Y13G is lower in abundance fitness: 0.028 ± 0.051 for the first, -0.463 ± 0.083 for the second.

G35V and N59A are within error of each other in abundance fitness: -0.005 ± 0.061 for the first, 0.054 ± 0.06 for the second.

E25I and L3T are within error of each other in abundance fitness: -0.348 ± 0.22 for the first, -0.201 ± 0.072 for the second.

G48R and K42H are within error of each other in abundance fitness: -0.376 ± 0.073 for the first, -0.571 ± 0.14 for the second.

Compared with V31N, E30Y is higher in abundance fitness: -0.947 ± 0.23 for the first, -0.238 ± 0.099 for the second.

Going from P54N to Y13S, the abundance fitness falls from 0.198 ± 0.13 to -0.356 ± 0.059.

Compared with E34V, V31L is lower in abundance fitness: -0.004 ± 0.062 for the first, -0.454 ± 0.057 for the second.

Going from G26D to L29T, the abundance fitness falls from -0.047 ± 0.087 to -0.782 ± 0.15.

Going from C5I to G16Q, the abundance fitness rises from -0.419 ± 0.1 to 0.019 ± 0.083.

D36G and D38S are within error of each other in abundance fitness: -0.049 ± 0.094 for the first, 0.005 ± 0.045 for the second.

E33G and E18N are within error of each other in abundance fitness: 0.071 ± 0.078 for the first, -0.086 ± 0.091 for the second.

Going from R44M to E33Y, the abundance fitness falls from -0.175 ± 0.066 to -0.56 ± 0.12.

E55S and D19Q are within error of each other in abundance fitness: -0.069 ± 0.05 for the first, 0.034 ± 0.079 for the second.

First: E25S
Second: V53S
The abundance fitness of the first is higher: 0.104 ± 0.11 for the first, -0.981 ± 0.097 for the second.

First: R1N
Second: N45C
The abundance fitness of the first is higher: 0.002 ± 0.099 for the first, -0.994 ± 0.28 for the second.

Compared with P61G, H8A is lower in abundance fitness: 0.042 ± 0.067 for the first, -0.497 ± 0.073 for the second.

Q46E and D19C are within error of each other in abundance fitness: -0.052 ± 0.056 for the first, 0.087 ± 0.099 for the second.

P4N and E34A are within error of each other in abundance fitness: -0.194 ± 0.17 for the first, 0.017 ± 0.061 for the second.

Going from F11G to V31Y, the abundance fitness falls from 0.095 ± 0.041 to -0.431 ± 0.22.

Going from V41F to V41E, the abundance fitness falls from -0.262 ± 0.085 to -1.12 ± 0.47.

L21V and V53A are within error of each other in abundance fitness: -0.456 ± 0.098 for the first, -0.564 ± 0.081 for the second.

Compared with L21K, H8C is higher in abundance fitness: -0.989 ± 0.35 for the first, -0.28 ± 0.11 for the second.

Going from D62S to Y57R, the abundance fitness falls from 0 ± 0.056 to -0.373 ± 0.071.

Going from H47P to R56C, the abundance fitness rises from -0.585 ± 0.11 to -0.012 ± 0.12.

Compared with C5M, N45H is higher in abundance fitness: -0.595 ± 0.1 for the first, -0.166 ± 0.17 for the second.

L29F and N45F are within error of each other in abundance fitness: -1.03 ± 0.33 for the first, -0.869 ± 0.17 for the second.

Going from E30C to D38I, the abundance fitness rises from -0.307 ± 0.15 to -0.066 ± 0.076.

E34L and P61L are within error of each other in abundance fitness: -0.028 ± 0.044 for the first, 0.004 ± 0.043 for the second.

Going from G16I to N45D, the abundance fitness falls from -0.118 ± 0.093 to -0.571 ± 0.2.

First: T22N
Second: Y57W
The abundance fitness of the first is higher: 0.09 ± 0.13 for the first, -0.281 ± 0.11 for the second.

F52K and V31I are within error of each other in abundance fitness: 0.048 ± 0.072 for the first, -0.028 ± 0.067 for the second.

First: R44Y
Second: R1G
The abundance fitness of the first is lower: -0.587 ± 0.13 for the first, -0.238 ± 0.057 for the second.

First: H47R
Second: I32K
The abundance fitness of the first is higher: 0.092 ± 0.048 for the first, -0.948 ± 0.24 for the second.

First: P6Q
Second: P4H
The abundance fitness of the first is higher: -0.222 ± 0.072 for the first, -0.472 ± 0.13 for the second.

D36H and G35T are within error of each other in abundance fitness: 0.033 ± 0.15 for the first, 0.063 ± 0.088 for the second.

Compared with L3E, V53D is lower in abundance fitness: -0.503 ± 0.12 for the first, -0.745 ± 0.12 for the second.

H8S and Y57G are within error of each other in abundance fitness: -0.479 ± 0.07 for the first, -0.44 ± 0.065 for the second.

R17H and P54K are within error of each other in abundance fitness: 0.043 ± 0.11 for the first, -0.075 ± 0.1 for the second.

First: L29R
Second: Q46D
The abundance fitness of the first is lower: -0.728 ± 0.08 for the first, -0.198 ± 0.076 for the second.

First: H47Y
Second: L21S
The abundance fitness of the first is higher: -0.215 ± 0.11 for the first, -0.517 ± 0.093 for the second.

Compared with V41Y, L58T is lower in abundance fitness: -0.154 ± 0.11 for the first, -0.602 ± 0.084 for the second.

Going from A43Y to A7R, the abundance fitness rises from -0.914 ± 0.21 to -0.617 ± 0.067.

Compared with V10L, I23M is lower in abundance fitness: -0.165 ± 0.05 for the first, -0.269 ± 0.045 for the second.

E18Y and E39L are within error of each other in abundance fitness: -0.233 ± 0.079 for the first, -0.146 ± 0.043 for the second.

Compared with E55W, R44H is lower in abundance fitness: -0.151 ± 0.056 for the first, -0.74 ± 0.14 for the second.

Compared with P54R, P54V is lower in abundance fitness: 0.012 ± 0.042 for the first, -0.638 ± 0.09 for the second.

E55H and K42Y are within error of each other in abundance fitness: -0.133 ± 0.1 for the first, -0.381 ± 0.15 for the second.

First: R44S
Second: I32S
The abundance fitness of the first is higher: -0.253 ± 0.063 for the first, -0.863 ± 0.12 for the second.

Going from F11Q to E27V, the abundance fitness falls from -0.103 ± 0.07 to -0.81 ± 0.15.

Compared with I32G, G16W is higher in abundance fitness: -0.674 ± 0.09 for the first, -0.245 ± 0.067 for the second.

Going from E18T to E25R, the abundance fitness falls from -0.013 ± 0.071 to -0.328 ± 0.079.

First: K42E
Second: E30V
The abundance fitness of the first is lower: -0.496 ± 0.14 for the first, -0.202 ± 0.045 for the second.

Compared with A7Q, Y57V is higher in abundance fitness: -0.854 ± 0.15 for the first, 0.103 ± 0.039 for the second.

Going from E49K to L58C, the abundance fitness falls from -0.026 ± 0.096 to -0.499 ± 0.078.

Going from E33A to R17P, the abundance fitness falls from -0.048 ± 0.07 to -0.797 ± 0.27.

Compared with F60Q, E39P is higher in abundance fitness: -0.778 ± 0.11 for the first, -0.207 ± 0.067 for the second.

V10E and E25H are within error of each other in abundance fitness: -0.247 ± 0.11 for the first, -0.176 ± 0.17 for the second.

Compared with V31M, E33Q is higher in abundance fitness: -0.501 ± 0.12 for the first, 0.051 ± 0.11 for the second.

First: W28M
Second: V31T
The abundance fitness of the first is higher: -0.024 ± 0.057 for the first, -0.778 ± 0.14 for the second.

N45I and Q14A are within error of each other in abundance fitness: -0.212 ± 0.14 for the first, -0.153 ± 0.063 for the second.

First: A37I
Second: A15Q
The abundance fitness of the first is higher: -0.026 ± 0.099 for the first, -0.27 ± 0.062 for the second.

T22A and P54Q are within error of each other in abundance fitness: -0.2 ± 0.054 for the first, -0.117 ± 0.063 for the second.

R12P and D62K are within error of each other in abundance fitness: -0.102 ± 0.072 for the first, -0.148 ± 0.15 for the second.

L21T and V9R are within error of each other in abundance fitness: -1.21 ± 0.47 for the first, -0.788 ± 0.081 for the second.

Going from F52S to P4M, the abundance fitness falls from -0.059 ± 0.058 to -0.247 ± 0.11.

L3I and D38A are within error of each other in abundance fitness: -0.058 ± 0.093 for the first, 0.057 ± 0.045 for the second.

Going from G51C to C5Q, the abundance fitness rises from -0.958 ± 0.15 to -0.171 ± 0.09.

E30K and P61H are within error of each other in abundance fitness: -0.289 ± 0.099 for the first, -0.249 ± 0.086 for the second.

E27D and F60I are within error of each other in abundance fitness: -0.047 ± 0.16 for the first, -0.154 ± 0.069 for the second.

First: K42V
Second: E25L
The abundance fitness of the first is higher: -0.105 ± 0.05 for the first, -0.298 ± 0.069 for the second.

First: F52E
Second: H8P
The abundance fitness of the first is higher: -0.322 ± 0.058 for the first, -0.905 ± 0.14 for the second.

Going from E18L to A43S, the abundance fitness falls from -0.23 ± 0.044 to -0.578 ± 0.079.

V41L and L3Q are within error of each other in abundance fitness: -0.199 ± 0.048 for the first, -0.362 ± 0.17 for the second.

First: G35L
Second: R44F
The abundance fitness of the first is higher: -0.318 ± 0.047 for the first, -0.756 ± 0.09 for the second.

First: E49V
Second: K42P
The abundance fitness of the first is higher: -0.139 ± 0.066 for the first, -0.974 ± 0.15 for the second.

First: W28R
Second: V31K
The abundance fitness of the first is higher: 0.039 ± 0.041 for the first, -0.797 ± 0.14 for the second.

L58P and V9D are within error of each other in abundance fitness: -0.946 ± 0.18 for the first, -0.764 ± 0.27 for the second.

A15G and P6T are within error of each other in abundance fitness: -0.088 ± 0.05 for the first, -0.219 ± 0.097 for the second.

Compared with E27A, R1F is higher in abundance fitness: -0.711 ± 0.16 for the first, 0.053 ± 0.099 for the second.

W40D and R17S are within error of each other in abundance fitness: 0.028 ± 0.14 for the first, -0.016 ± 0.06 for the second.

Variant L3A has an abundance fitness of -0.693 ± 0.24.
